This is an account of results in PMC11672753 (2024).

The test addresses neonatal Fc receptor FcRn (FcRn-SmBiT) (UniProt P55899 24-297). Put plainly: competition with IgG-LgBiT tracer (Lumit FcRn assay).

neonatal Fc receptor FcRn (FcRn-SmBiT), sequence (P55899 24-297, chain 1 of 2): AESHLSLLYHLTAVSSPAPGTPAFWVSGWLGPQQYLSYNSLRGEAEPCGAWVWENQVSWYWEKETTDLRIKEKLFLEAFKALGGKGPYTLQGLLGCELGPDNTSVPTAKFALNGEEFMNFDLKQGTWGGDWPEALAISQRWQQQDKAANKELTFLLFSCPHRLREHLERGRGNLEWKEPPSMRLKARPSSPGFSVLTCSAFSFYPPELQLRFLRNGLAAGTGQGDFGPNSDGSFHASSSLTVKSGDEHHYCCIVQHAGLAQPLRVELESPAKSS
neonatal Fc receptor FcRn (FcRn-SmBiT), sequence (chain, as listed by the source, chain 2 of 2): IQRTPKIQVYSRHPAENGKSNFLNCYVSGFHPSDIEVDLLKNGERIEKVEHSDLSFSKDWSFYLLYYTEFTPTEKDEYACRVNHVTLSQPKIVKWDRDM

B1: S15-FX (Fc fusion)
chain 1: QVQLLESGGGLVQPGGSLRLSCAASGFTFSSYAMSWVRQAPGKGLEWASAISGSGGSTYYADSVEGRFTISRDNSKNTLYLQMNSLRAEDTAVYYCAKDTGYCGDDCYIKLIRGGPDYWGQGTLVTVSS
chain 2: DIVMTQSPLSLPVTLGQPASISCRSSQSLVYSDGNTFLNWFQQRPGQSPRRLIYQVSNRDSGVPDRFSGSGSGTDFTLKISRVEAEDVGVYYCMQGTHWPRTFGQGTKLEIK
modifications: N-linked glycan at Asn297 devoid of core α-1,3-fucose and β-1,2-xylose; predominantly complex GnGn (52%–54%) and M5-M9 high mannose type (22%–24%); ~15% unglycosylated sites
Molecule B1 had an IC50 of 19.5 µg/mL.

B2: S15-YTE (Fc fusion)
chain 1: QVQLLESGGGLVQPGGSLRLSCAASGFTFSSYAMSWVRQAPGKGLEWASAISGSGGSTYYADSVEGRFTISRDNSKNTLYLQMNSLRAEDTAVYYCAKDTGYCGDDCYIKLIRGGPDYWGQGTLVTVSS
chain 2: DIVMTQSPLSLPVTLGQPASISCRSSQSLVYSDGNTFLNWFQQRPGQSPRRLIYQVSNRDSGVPDRFSGSGSGTDFTLKISRVEAEDVGVYYCMQGTHWPRTFGQGTKLEIK
modifications: N-linked glycan at Asn297, absent in a larger percentage (>10%) of antibodies
B2 had an IC50 of 11.8 µg/mL.

B3: S15 (plant-produced COVA2-15, single-chain (sc)Fv-Fc format) (Fc fusion)
chain 1: QVQLLESGGGLVQPGGSLRLSCAASGFTFSSYAMSWVRQAPGKGLEWASAISGSGGSTYYADSVEGRFTISRDNSKNTLYLQMNSLRAEDTAVYYCAKDTGYCGDDCYIKLIRGGPDYWGQGTLVTVSS
chain 2: DIVMTQSPLSLPVTLGQPASISCRSSQSLVYSDGNTFLNWFQQRPGQSPRRLIYQVSNRDSGVPDRFSGSGSGTDFTLKISRVEAEDVGVYYCMQGTHWPRTFGQGTKLEIK
modifications: N-linked glycan at Asn297, major glycoforms complex type with α-1,3 fucose and β-1,2-xylose (GnGnXF)
For B3, the IC50 was found to be 32.8 µg/mL.

B4: S15-HDEL (Fc fusion)
chain 1: QVQLLESGGGLVQPGGSLRLSCAASGFTFSSYAMSWVRQAPGKGLEWASAISGSGGSTYYADSVEGRFTISRDNSKNTLYLQMNSLRAEDTAVYYCAKDTGYCGDDCYIKLIRGGPDYWGQGTLVTVSS
chain 2: DIVMTQSPLSLPVTLGQPASISCRSSQSLVYSDGNTFLNWFQQRPGQSPRRLIYQVSNRDSGVPDRFSGSGSGTDFTLKISRVEAEDVGVYYCMQGTHWPRTFGQGTKLEIK
modifications: N-linked glycan at Asn297: 88%–92% high-mannose-type N-glycans, less than 2% with α-1,3-fucose and β-1,2-xylose
B4 showed an IC50 of 8.58 µg/mL. Compared with the last molecule, the IC50 is about 3.8-fold lower.
